The values below come from patent US20100069304A1, “PROTECTIVE EFFECTS OF INHIBITING THE INTERACTION OF CALMODULIN AND MUTANT HUNTINGTIN PROTEIN” (priority 2008, published 2010).

In the assay the target is htt-N63-148Q (63 amino acid N-terminal huntingtin fragment containing 148 polyglutamine repeats) (UniProt P42858). Nature of the assay: cell-based or functional assay.
Sequence of htt-N63-148Q (63 amino acid N-terminal huntingtin fragment containing 148 polyglutamine repeats) (P42858 other isoform, or with tags, fused parts or gaps limits assumed): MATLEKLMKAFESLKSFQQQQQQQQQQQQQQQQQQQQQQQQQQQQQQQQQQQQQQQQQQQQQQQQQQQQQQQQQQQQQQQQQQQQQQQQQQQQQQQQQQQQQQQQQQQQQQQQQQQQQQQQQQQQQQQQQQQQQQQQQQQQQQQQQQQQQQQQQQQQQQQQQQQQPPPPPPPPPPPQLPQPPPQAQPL

Substance “CaM-center (center region CaM construct, 77 amino acids in the center of calmodulin) (from UniProt P0DP23 37-113)” had a TG-catalyzed modifications of huntingtin (second experiment, HEK-293T cells) (fold decrease) of 2; a TG-modified huntingtin (81D4 immunoprecipitation, immunoblot, HEK-293T cells) (fold decrease) of 2; a carbachol-stimulated intracellular Ca2+ release (Fura-2, HEK-293T cells) of 10 % decrease; a cytotoxicity (LDH assay, HEK-293T cells) of 40 % decrease. The cytotoxicity (LDH assay, second experiment, HEK-293T cells) amounted to 50 % decrease.
The substance “CaM-C-term (C-terminal CaM construct, last 72 amino acids of calmodulin) (from UniProt P0DP23 78-149)” had a TG-catalyzed modifications of huntingtin (second experiment, HEK-293T cells) (fold decrease) of 2; a TG-modified huntingtin (81D4 immunoprecipitation, immunoblot, HEK-293T cells) (fold decrease) of 2; a cytotoxicity (LDH assay, HEK-293T cells) of 40 % decrease; a cytotoxicity (LDH assay, second experiment, HEK-293T cells) of 40 % decrease.
